The text below walks through data of a protein production outcome set (Wang et al. 2014).

The nature of this series: label from the status in PepcDB records.
In the case of “MRFSQLLLALCCLTFGAQADVFIKQEDMDLKQALEAIAKDMQLKLVSDIDSKTSSQPITQTLSGSGPMLLSKLSSVFDFDWYTFGGTLTIQSGQQYANYTYKPKNISPSQLLSEMKGAFKTNSTTKIKLVERGHSLLFSGTRKFVNDAMGYASMVDRNQFLEKGNNLEVARIEFNYVSVMDRNIATYDGQVNFPGAQSLIAAAITNIGQFTNLNDEELTSRAYRVKLSQGEKQALEEDEKSTKVQALPGTNALLIRGTQEEVKLAKRIAALIDVKRRQLLFSLKVYDISAERKENLGIDSGWLNGNRGIYDIVVPPFTETKDFVKNFQALYSNGIARSVYETNLVALENQQSQFGKKQTATLTLISDKQVKTEKIEADNSLYVTGRLLPSGQVQARIQYVEESLDEDDNEDSNRPPRVSSQSLNSEVYIQPNQTVILGGFDNTVTQQQESGVPIISSIPLLGELFKYTSESKHKYKRYVSISFQVIE”, the protein production result is “failed”.

For “MERHVNYTLIGGLFFLCLVCMVGFILWLGHLGLDDGKYYEYVVYTDKDLGGIATNSPINYKGIQVGNVIKVGFAKDKVGVVRLDLMIKSSVKIRKDSKVAVSSRGFMGLKFLALEQSHNEEFYGSGDKGERILIFKEGLMDRLSGDANQVVQEVMKAIRNVNRILDDENVEKFKHILASVDDLIANLDSRKTQFDSLISNANNLVSNVNNVALDVDKRLKQGQYDFKAMFTPLIMQAQLSLRNIDNFVEKGSALIDKFDANPYKTIFGERK”, the protein production entry is listed as “failed”.

Take “MNKRAREWVSVGITWVQDVIYVALGILLTLACAVLLLHGGVNLVGALGRDLDLQVIVQLLDRILLAMMIVELLYTVKVSFRDHLLVPEPFLLVALIAAIRRILVITAEFGAQAPSGDEQFRHVMSELGLLTVLILVLVGSVVILRRRDSAEAPR”: the protein production entry is “failed”.

For “MIFMRKVVAEVSIIPLGKGASVSKYVKKAIEVFKKYDLKVETNAMGTVLEGDLDEILKAFKEAHSTVLNDVDRVVSSLKIDERKDKENTIERKLKAIGEL”, the protein production entry is “not failed”.

As to “MGELIYGEVKKQTKDGFIIDLGDNAEAYLAREEMIAKEILRPKQRMNAILYSVNREGRGAQLLLSRARPEMLMALMKKEIPLEHHHHHH”, the protein production entry was “failed”.

Take “DGENYFIVDAHVALWDARRENQRNIHGKQFIDCFYDYHRNLSPASELWPYEDFLYQGGERLMKDLFTDGYVDHAIFQPAHLGAFYNTGFGQTEEAFALTRKHPGMLTYNHCFDPRFEEAGLKQLREDAARFGLKGVKLYTAEWKGDSRGYKLSDPWTYRYLDACRELGIKNIHVHKGPTIRPLDRDAFDVADVDAAASDFTDLNFVVEHCGLPRLEDFCWIATQEPNVHAGLAVAIPFMHTRPRYFAQIIGELLYWLDEDRIQFSSDYALWTPRWIVEQFVDFRIPDDMTGEYPQLTVAQKKKILGLNAAAMYDI”: the protein production result is on record as “failed”.

With “MAVRFFHTSDWHLGQFFYNHSRHYEHEQFLAWLLKQIKAKQPHALLIAGDIFDVINPSSQAQKQLYQFLADAHALAPHMQTLMIAGNHDSGYRIEQVEPLLEKYNARTVGVIRWNEDKTLNLERLILPVYDENKNVVAWCIALPFLRSAEITGFNEHTNNSQSAIAYLHEQLISEAKRRKTDDQAIILMSHAHMQGGETSDSERPIIIGNEEALSTALFDDAIDYVALGHLHKPQKVQHPHIRYSGSPIPLSFSEINYKHQVVDVNIDPTQSTDKFQFEAIEIPRSIKLHKIRGELNEVIQQLKSLAQGEIESIDLREYIDIEYHTLTPPLPNLRQQFEDALPPKRYRLVRISRQYLSQDNNAAQASKINLEPPTPEKLFEQIWDKKGYHADDDVKKDFMSLVAQAQQQLEDQHKY”, the protein production entry is listed as “failed”.

On to “MACFSGTVYLVACRFRSRGNSMPYKISQYVLDDATPDDSGIVQGDMDVFIHQLMTLMEASQQGYALFDGNDELRFANSAFRAALGIGRHEFPSWVDMMRSGYRTTTGTSIETSDFELWLRSAKTRRGKLPFRTIETSLKDGRWMLTTETTLPGGWMLCVITDVSELGIELRDLRQERDRALKSALSDELTGLGNRRYAMDTLNHLLGPNKAQALAVIIMDIDHFKSVNDRFGHAYGDLVLKDFAARLSATAGRDDLLGRIGGEEFLLVLSGSRMHSADSLMRQLLSSLAQASPLGDRPDFRYSCSAGIAYANPGESASEVLRHADTALYEAKNTGRNRYVIYATVP”, for which the protein production result is “failed”.

Turning to “MIGMDHLAIGTYEGFLIGYDIDTQPNDPKTTTGCTLRYAYAAHERSIRCIAGSFPILASASVDESIKVYQLDQLQELATLYDLQVPVNSVDIQLQGGLLSGGEDGKLVYYPYGGWSKPKYLKGHKGNVHSVALHPTGQICLSVARDKCLKLWKTNGDCVCSLELPDEAFIVKWTEDGQGWVIATQTSFSVHSLQTGLIQQWEYSTRLVCLCALTNDIFVVGGMDGHLRVGENKPIQVHKVDGGSLVKGIGVGRDGCIYSLSSKGVLEMVAPSRQLEIQNGVVKRYIE”, the protein production result is listed as “failed”.

Regarding “MLKTTISPIFSSFTGKPKCSSKLFFRAFSKVVLQDTPPSARRNASTNLTTLHKGPPTSAYVHLPFCRKRCHYCDFPILALGMSSSSARPSNVYEEGKEDDPRITNYVNLLVREIKATRTDFDTNPNLETVFFGGGTPSLVPPKLVSLILETLSLNFGLSPDAEISMEMDPGTFDGQKLKDLMKLGVNRVSLGVQAFQDELLKACGRAHGVSQVYEAIEFVKECGVENWSMDLISSLPHQTLEMWEESLRLAIESQPNHVSVYDLQVEQGTKFGNLYTPGQSPLPSETQSAEFYKTASSMLRGAGYEHYEVSSYSRDGFKCKHNLIYWKNKPFYAFGLGSASYVGGLRFSRPRRLKEYTNYVADLENGAANWCGNGDVDLKDVATDILMLSFRTSKGLELKEFGEAFGSEVVKSICKVYEPYVESGHIVCLDDMRSEVMIDEFKTLVANDEVKIEDHVRYLRLKDPDGFLLSNELISLSFGVVAP”, the protein production entry is “failed”.

On to “MSKLKTIALTASGLSVCPGFLYAQNTSSHQIGLAIMRLNSSILDLPPTKQYFQSGSLWSELRQGFRMGEVNPELVRRHESKFIASHSYFNRVINRSRPYMYHIANEVKKRNMPAEAALLPFIESAFVTKAKSHVGASGLWQFMPATGRHYGLEKTPVYDGRHDIYAATDAALNYLQYLYGLFGDWPLAFAAYNWGEGNVGRAINRARAQGLEPTYENLRMPNETRNYVPKLLAVRNIIAAPQSFGMNISDIDNKPYFQAVEPDRPLDNEAIARLAGITQSELLALNPAFNVPAFIPKSKRKLLLPVASVQTFQSNYLNAAPDSLFSWEVYTPAAKTSLSDISTATGMSIADIKRLNNLNGNLVNAGRSILVAKNGKTLQTASESVVSIDIDNTPNTYRSNMPAGTVNVGIARIRPAAAQTADITVAPLPQKTVRTEPDPLVRIAEPALATAAAQPQTEKQTAMPSETQTATLAQIVPQNDMQAADELMQLVARNNLRRQAEETISAVIGTPDTVAEHNISSSPQHTVAADGKRRVRLETRVAKAADGEAEISPLHASIHRVVEGDTLFNIAKRYNVSVADLIVANNIKGNTIQKGQVLRLAQAAPAQTRIEKVSYTARKGDTFKSIAARFNIHIDDIRRLNPNLNTINPGQRVKLIGS”, for which the protein production entry is listed as “failed”.

As for “MMQSRRVQESLVGLVILAGLATLGVGLLWLRGNLAGANSYTLEVELDTAPGLAVGTQVRYRGVQVGRVTAIGFDANGVQVSVRINNVLIPRRAVPEIRQSGFIGQAFLDFTPKERVPEIPEGVTAFAPKCQPELVYCNGDRVTGVRTASLEDLVRAATRFTTALEESGLINNANTLILGATRIVNRADQSLTKVTTALDSFNALSNQARAELRNFGIAAQAVTRAANQISEIVEVNRNTINSSLRNIDSAARELRTTLKALHPLTNQLEQGELLANLDALIKNGAEAAANLNKVSGALSSPLIMLSIAQTLDAARATFINAQKLTNDLLKLTSDPSFQSDLRRLIQILRRLLASSQDLEQQFLALHATSLGEAHEPMPAISAPTAAAKPTKEEEPEP”, the protein production result was “failed”.

As for “MITKQDTIYEWIQNGQLEDALKALFQNIEEEPNTIENYINAGIVLADINEIEKAERFFQRAITIDDKNGAVYYNLANLYYDQGKYRDAIKLYQLASKYNMDKIDTNYMIGMSFNQLDAPTESLPYFMTAAELDKNQDAEVQFQYGLALCHLEMFNQAINQLKIVLDIDSKHVDALYNLGLATYMDTEDLDLAMSYFDKAISIDPNHLLSQHAKKTFEAIKNEEE”, the protein production result was “failed”.
